According to the supplement of paper PMC9170038:

Tested on: MS2 coat protein
Assay: apparent KD of MS2 coat protein; designed switch direction (-1 OFF switch, 1 ON switch): -1; higher = weaker reporter binding
Summary of the method: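 The buffer was Tris-HCl pH 7.5 with KCl, MgCl2, BSA, DTT, tRNA and Tween-20. In it, SNAP-549-labelled MS2 coat protein was titrated in doubling steps from 0.7 or 1.5 nM to 3 µM over chip-bound RNA switches transcribed by stalled E. coli RNA polymerase on Illumina chips. Apparent KD is the per-design median over clusters of curve fits to normalised fluorescence.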

[1] = input ligand: microRNA oligo, concentration not stated
[2] = Eterna round: R95, input ligand: FMN 200 uM
[3] = Eterna round: R95, input ligand: microRNA oligo, concentration not stated
[4] = Eterna round: R95, input ligand: none

Sequence | apparent KD of MS2 coat protein (input ligand: FMN 200 uM) [nM] | apparent KD of MS2 coat protein (input ligand: none) [nM] | apparent KD of MS2 coat protein [1] [nM] | apparent KD of MS2 coat protein [2] [nM] | apparent KD of MS2 coat protein [3] [nM] | apparent KD of MS2 coat protein [4] [nM]
AAAUCGUGAGGAUAUCCAAUAUAUGACAUGAGGAUCACCCAUGUUUCCACUCGUACCUCCGGAGAAGGCACAGUUA [Ex5 #73] (Eterna round: R97, puzzle: Exclusion 5) | 24.7 | 26.3 | – | – | – | –
AAAUGAAAGGCAGGAUAUCGUACUGAUCUUUGUCGAGAAGGGCCAGGGUCCCUCGGCUACAUGAGGAUCACCCAUGUUAAAAGA [Onabele] (Eterna round: R96, puzzle: Exclusion NG 1) | 56.9 | 36.2 | 29.4 | – | – | –
AAAUGCGAGCGAGGAUAUCAGAAAGGAAGUGUAUGAGAAGGCGCACCGCGGGUAUCCGGACAUGAGGAUCACCCAUGUAGGCUC [PowerStrip EXNG 1.28] (Eterna round: R96, puzzle: Exclusion NG 1) | 23.2 | 29.5 | 17.8 | – | – | –
AACAAGGGUUAAUGUACGGACAUGAGGAUCACCCAUGUCCACGGAUGUGUGGAGAGGUCCUCUUUGGCUCGUCUUAU [Cac Sensor turn off var1 sub10] (Eterna round: R97, puzzle: Sensor, turn-off variant 1) | 47.8 | 87.8 | – | – | – | –
AACAGUCUAGAGGAUAUGUGCGAUUAAUAUCGUGCAGAAGGCUGGACAUGAGGAUCACCCAUGUAAAUACUACC [Omei Ex6 A16] (Eterna round: R97, puzzle: Exclusion 6) | 79.4 | 34 | – | – | – | –
AACAUGUUAGGAUAUGGUCCUGUGCCACAUGGAGGUUUAGGUUAGAAGGGACAUGAGGAUCACCCAUGUUAAAU [Eternabot (L2) Solution 39] (Eterna round: R97, puzzle: Exclusion 4) | 168 | 183 | – | – | – | –
AACCAGCGAGGAUAUGCUUGCGCGUGUUCUAGUUGUAAUCGACUUGAGGAUCACCCAAGUAGAAGGCGCUGCCG [EX2 #50] (Eterna round: R97, puzzle: Exclusion 2) | 103 | 119 | – | – | – | –
AACCGGCGGACCGAAGCUUUUUGCUUGUUUUAUACUACUACAUGAGGAUCACCCAUGUCGUGGUGGUCUGUUGUAGA [Bibe] (puzzle: Sensor v3, turn-off variant 2) | – | – | – | 38.9 | 15.7 | 33.2
AACCUGAGGCUUUGCUUUAGGUAUACAUGAGGAUCACCCAUGUAGGAUAUGGUAGGCUUUGCUUACCAGAAGGACAUGUUAAUU [JL ENG3 1.10] (Eterna round: R96, puzzle: Exclusion NG 3) | 136 | 44.2 | 41.7 | – | – | –
AACGUCUAGGUAGGAUAUCCACCAACAGGUGGAAGGAUAUGGAAACAGAAGGUUCGCCAACAGGCGGAGAAGGACCUACGCGUA [pwkr exNG2 2xF7 2xFMN.25] (Eterna round: R96, puzzle: Exclusion NG 2) | 50.4 | 387 | 162 | – | – | –
AAGAAACAUGAGGAUCACCCAUGUGAGGAUAUGACUAAGAAAAGAAAAGAAAGAAGAAUCAGAAGGCACAAAGG [salish99-ex1_r3_053] (puzzle: Exclusion 1) | – | – | – | 29.7 | 43 | 49.3
AAGAAACAUGAGGAUCACCCAUGUGAGGAUAUGAGUAAGAAAAGAAAAGAAAGAAGAAUCAGAAGGCACAAAGG [salish99-ex1_r3_048] (puzzle: Exclusion 1) | – | – | – | 55.2 | 38.3 | 38.3
AAGAAACAUGAGGAUCACCCAUGUGAGGAUAUGAUAAAGAAAAGAAAAGAAAGAAGAAUCAGAAGGCACAAAGG [salish99-ex1_r3_031] (puzzle: Exclusion 1) | – | – | – | 129 | 51 | 54
AAGAAACAUGAGGAUCACCCAUGUGAGGAUAUGAUCAAGAAAAGAAAAGAAAGAAGAAUCAGAAGGCACAAAGG [salish99-ex1_r3_044] (puzzle: Exclusion 1) | – | – | – | 295 | 176 | 342
AAGAAACAUGAGGAUCACCCAUGUGAGGAUAUGAUCAAGAAAAGAAAAGAAAGAAGAGUCAGAAGGCACAAAGG [salish99-ex1_r3_065] (puzzle: Exclusion 1) | – | – | – | 282 | 291 | 418
AAGAAACAUGAGGAUCACCCAUGUGAGGAUAUGAUGAAGAAAAGAAAAGAAAGAAGAUUCAGAAGGCACAAAGG [salish99-ex1_r3_055] (puzzle: Exclusion 1) | – | – | – | 113 | 48.9 | 80.5
AAGAAACGAGGAUAUACAAUUAAGUGAGAGAGGGAAAUGUGACAUGAGGAUCACCCAUGUAGAAGGCGUAAGAG [JR_Exclu2_Sub084] (puzzle: Exclusion 2) | – | – | – | 66.2 | 44.2 | 53.5
AAGAAACGAGGAUAUACAAUUGAGUGAGAGAGGGAAGUGUGACAUGAGGAUCACCCAUGUAGAAGGCGUAAGAG [JR_Exclu2_Sub085] (puzzle: Exclusion 2) | – | – | – | 124 | 79.5 | 73.9
AAGAAACGGCAGGAUAUCCAGUCGAGAGAAAUAGGAGAAGGGCCAACAUGAGGAUCACCCAUGUCGGUGGCCUC [Rariinon] (Eterna round: R97, puzzle: Exclusion 6) | 145 | 78.5 | – | – | – | –
AAGAAGAAGUAAGGAUAUGAAGAUCUGGUGGUGACAUGAGGAUCACCCAUGUGAAAACAAUAAGAUCAGAAGGUAUAAGAAGAA [AK ExNG2-3.1] (Eterna round: R96, puzzle: Exclusion NG 2) | 81 | 87.9 | 70.4 | – | – | –
AAGAUACAUGAGGAUCACCCAUGUGAGGAUAUGAGUCAGUCACGGUGACGUGGCUGACUCAGAAGGCACAAAGG [JL-ex1-4.36 salish99 mod] (Eterna round: R97, puzzle: Exclusion 1) | 176 | 110 | – | – | – | –
AAGAUGCGGGUAGGAUAUGGAGAGAAAGAAAGACCAGAAGGACUGGUCACACAACAUGAGGAUCACCCAUGUGUGUGUUGCGAA [EX ng 1 6] (Eterna round: R96, puzzle: Exclusion NG 1) | – | – | 8.52 | – | – | –
AAGCUGUCAGGAUAUCGUUAAUUUAGUUGUUUGUAUUAGUUCGAGAAGGGACAUGAGGAUCACCCAUGUAUGAA [Ex4 #41] (Eterna round: R97, puzzle: Exclusion 4) | 62.7 | 31 | – | – | – | –
